Experiment [1] addresses hu IGF-1R(ECD)-C3-muIgG1Fc (human; mouse). The experiment is described as follows: ORIGEN competition: antibody vs 1 nM Ru-IGF-1 on IGF-1R(ECD)-C3-muFc beads.
For experiment [2] the target is unchanged. The experiment is described as follows: ORIGEN competition: antibody vs 2 nM Ru-IGF-2 on IGF-1R(ECD)-C3-muFc beads.

For the substance “murine anti-IGF-1R antibody 1H7 (Santa Cruz Biotechnology)”, the Ki in experiment [1] turned out to be 16 nM; in experiment [2], 13.1 nM. Besides, the values for the Max (%), maximum level of inhibition at 1 µM antibody in experiment [1] and in experiment [2] were 89% and 99%, respectively.
In experiment [1], “murine anti-IGF-1R antibody αIR3 (Calbiochem)” yielded a Ki of 5.3 nM and a Max (%), maximum level of inhibition at 1 µM antibody of 91%.

(Values after US20090285824A1.)
